What was measured:
[1] = substrate: COc1ccc(C(=O)[C@@H](CO)Oc2ccc(C=O)cc2OC)cc1OC; experiment: purified protein; assay type: biochemical, Sphingobium sp. SYK-6; conditions: 5 mM GSH, 25 mM Tris, 2.5% DMSO, pH 8.0, 30 °C
[2] = substrate: COc1ccc(C(=O)[C@H](CO)Oc2ccc(C=O)cc2OC)cc1OC; experiment: purified protein; assay type: biochemical, Sphingobium sp. SYK-6; conditions: 5 mM GSH, 25 mM Tris, 2.5% DMSO, pH 8.0, 30 °C

Row | Protein | Km [1] [µM] | Vmax [1] [µmol/min/mg] | kcat [1] [s⁻¹] | kcat/Km [1] [M⁻¹ s⁻¹] | Km [2] [µM] | Vmax [2] [µmol/min/mg] | kcat [2] [s⁻¹] | kcat/Km [2] [M⁻¹ s⁻¹]
1 | LigE (Sphingobium sp. SYK-6) (protein, full-length LigE (282 residues), E. coli, synthesized gene in pCPD, C-terminal CPD-His tag cleaved off after a leucine; dimer) MARNNTITLYDLQLESGCTISPYVWRTKYALKHKGFDIDIVPGGFTGILERTGGRSERVPVIVDDGEWVLDSWVIAEYLDEKYPDRPMLFEGPTQKNLMKFLDNWLWSTAVGPWFRCYILDYHDLSLPQDRDYVRWSREQWFLGGQRLEDVQAGREDRLPLVPPTLEPFRRILAETKWLGGDQPNFADYSALAVFLWTASVARTPPLTEDDPLRDWLDRGFDLFDGLGRHPGMNPLFGLKLREGDPEPFVRQTGPAGAGGQALNKGPQTTKMPPRVAEKAD | 554 ± 16 | 59.7 | 31.9 ± 0.6 | 57600 ± 4800 | – | – | – | –
2 | LigF (Sphingobium sp. SYK-6) (protein, full-length wild type LigF (254 residues), vector pVP102KSSLigF; dimer) MTLKLYSFGPGANSLKPLATLYEKGLEFEQVFVDPSKFEQHSDWFKKINPRGQVPALWHDGKVVTESTVICEYLEDVFPESGNSLRPADPFKRAEMRVWTKWVDEYFCWCVSTIGWAFGIKAIAQKMSDEEFEEHINKNVPIPEQQLKWRRARNGFPQEMLDEEFRKVGVSVARLEETLSKQDYLVDTGYSLADICNFAIANGLQRPGGFFGDYVNQEKTPGLCAWLDRINARPAIKEMFEKSKREDLLKRQNEKVA | – | – | – | – | 269 ± 1 | 63.8 | 31.9 ± 0.1 | 118400 ± 1100

— PMC4777856, “Structural Basis of Stereospecificity in the Bacterial Enzymatic Cleavage of β-Aryl Ether Bonds in Lignin” (The Journal of Biological Chemistry, 2015)
